# B1: glycosomal malate dehydrogenase (MDH, residues 1-323) of Trypanosoma cruzi (enzyme, UniProt Q4DRD8 1-323, looked up)
# chain: MVNVAVIGAAGGIGQSLSLLLLRELPFGSTLSLYDVVGAPGVAADLSHIDRAGITVKHAAGKLPPVPRDPALTELAEGVDVFVIVAGVPRKPGMTRDDLFNVNAGIVMDLVLTCASVSPNACFCIVTNPVNSTTPIAAQTLRKIGVYNKNKLLGVSLLDGLRATRFINNARHPLVVPYVPVVGGHSDVTIVPLYSQIPGPLPDESTLKEIRKRVQVAGTEVVKAKAGRGSATLSMAEAGARFTMHVVKALMGLDTPMVYAYVDTDGEHECPFLAMPVVLGKNGIERRLPIGPITTVEKEMLEEAVGVVKKNIAKGETFARSKL
# Key:
# [1] = target: truncated Pex5 containing a single Wxxx(F/Y) motif (residues 314-666; Pex5TPR) (Trypanosoma cruzi) (UniProt Q4DPQ9); experiment: ITC
# [2] = target: Pex5 Y358A mutant (Pex5TPR) (Trypanosoma cruzi) (UniProt Q4DPQ9); experiment: ITC
# [3] = target: Pex5TPR with a GSGS-spacer between the TPR domain and the Wxxx(F/Y) motif (Trypanosoma cruzi) (UniProt Q4DPQ9); experiment: ITC
# [4] = target: glycosomal malate dehydrogenase (MDH, residues 1-323) of Trypanosoma cruzi (Trypanosoma cruzi) (UniProt Q4DRD8); experiment: ITC
# [5] = target: MDH GSGS-linker mutant (GSGS introduced between PTS1 and MDH) (Trypanosoma cruzi); experiment: ITC
# [6] = target: MDH with the 62-70 loop replaced with GS-linker (Trypanosoma cruzi); experiment: ITC
# [7] = target: Pex5 mutant with a partial deletion of the 457-489 loop (Pex5 Δ470-480) (Trypanosoma cruzi) (UniProt Q4DPQ9); experiment: ITC
# [8] = target: the molecule itself; experiment: cryo-EM structure
molecule,measurement,setting,value
N-terminal domain of Pex14 (Pex14NTD; residues 21-85) of Trypanosoma cruzi (domain or fragment),Kd,[1],53 nM
same,fold decrease in affinity against wild type Pex5,[2],1.5 fold
same,fold decrease in affinity against wild type Pex5,[3],3.5 fold
Pex5 P490R mutant (from UniProt Q4DPQ9 316-668) (domain or fragment),fold decrease in affinity against wild type Pex5,[4],> 3 fold
Pex14NTD(A48F) (domain or fragment),fold decrease in affinity against wild type Pex14NTD,[1],2 fold
truncated Pex5 containing a single Wxxx(F/Y) motif (residues 314-666; Pex5TPR) (from UniProt Q4DPQ9 316-668) (domain or fragment),fold increase in affinity against wild type MDH,[5],4 fold
same,fold decrease in affinity against wild type MDH,[6],2.5 fold
same,Kd,[4],435 nM
H-ARSKL-OH [short peptide encompassing PTS1 of MDH (residues 319-ARSKL-323)],fold decrease in affinity against wild type Pex5,[7],3 fold
B1,stoichiometry N,[8],4
